Data reported in patent US6509447B1, “G protein chimeras and methods of screening compounds” (Glaxo Welcome Inc., priority 1997, dated 2003).

Key:
[1] = test system: pheromone response pathway (FUS1-LacZ; Ste2p receptor); experiment: ONPG β-galactosidase assay of FUS1-LacZ in extracts of MMY9 cells; type: cell-based, Saccharomyces cerevisiae; details: G protein expressed from GPA1 promoter
Procedure: (§1) Assays for FUS1-IacZ Expression. β-galactosidase activities in cell extracts were measured with two assays. In the first assay (ONPG assay), cell extracts were incubated with the substrate ONPG as described by (37). Units were defined as (A420×1000)/(OD600x×t×v) (25). In the chemiluminescent assay, cells were grown to late logarithmic phase and diluted to 0.02 OD600 in 100 μl SC-WH medium in the presence or absence of 1 μM α-factor in 96-well microtitre plates. After incubation (30° C.; 6 hours), 20 μl of cells were removed and mixed with 20 μl assay mix (125 mM sodium phosphate pH 7.6, 15 mM MgSO4, 200 μM Galacton-Star β-galactosidase substrate (Tropix), 10% (v/v) Sapphire II (Tropix), 1 U/μl oxalyticase (Enzogenetics)). After incubation (30° C.; 1 hr) chemiluminescence was determined in a Top-count scintillation counter (Packard).
The Gα15/Gα16 subunits are reported to interact with a much broader range of receptors than is typical for a Gα subunit, and have the ability to couple receptors which normally interact with Gαi, Gαs or Gαq (26). […] We constructed a plasmid encoding a Gpa1/Gα16 C-terminal domain chimera (pRS314-Gpa1/Gα16; FIG. 5b); FIG. 6h) derived from the same centromeric vector as used for expression of functional chimeras described above. The level of FUS1-LacZ induction in MMY9 cells expressing the Gpa1/Gα16 chimera was determined by preparing cell extracts, and incubating them with the LacZ substrate o-Nitrophenyl β-D-galactopyranoside (ONPG; see Materials and Methods). Gpa1/Gα16 reduced FUS1-LacZ expression resulting in β-galactosidase activity of 79+/−8 units (Table 2). This level was intermediate between the activity of control cells transformed with vector (239+/−30 units), in which the pathway is constitutively activated due to the absence of Gα, and the basal activity in cells producing wild-type Gpa1p (19+/−4 units).

[2] = test system: pheromone response pathway; experiment: Chemiluminescent β-galactosidase assay of FUS1-LacZ in MMY9 cells; type: cell-based, Saccharomyces cerevisiae; details: GPA1 promoter, mean ±SD, n≧5
Procedure: as §1
A Gpa1/Gαs chimera has been reported to couple the growth hormone releasing hormone receptor (12) when expressed from the strong constitutive promoter of the yeast phosphoglycerate kinase (PGK1) gene. We constructed Gpa1/Gαs and Gpa1/Gαq chimeras similar to those described above (FIG. 5b) and expressed them in MMY9 cells from the promoter of the GPA1 gene. We assayed FUS1-LacZ activity in these cells using a chemiluminescent assay, rather than the ONPG assay described above. […]

[3] = target: T1, purinergic nucleotide receptor, P2Y2 (Homo sapiens, UniProt P41231); experiment: Reverse halo assay for FUS1-HIS3 expression, MMY9 cells, P2Y2; type: cell-based; details: MMY9 cells with pRS314-GPA1 and P2Y2 receptor, 100 nmol UTP
T1 construct: expressed in transfected cells; host or cells: Saccharomyces cerevisiae strains MMY9 and MMY11, plasmid pDT-PGK-P2Y2
Procedure: Assay for FUS1-HIS3 Expression. Reverse halo assays were carried out by growing MMY9 cells to early stationary phase (OD600≈4) in liquid SC-glucose (2%) medium lacking tryptophan and uracil. A uniform layer of cells (5×10^7) was plated to 22.5 cm by 22.5 cm bioassay dishes (Nunc) in 100 ml SC-glucose agar (1%) equilibrated to 50° C. This medium lacked tryptophan, uracil and histidine, and was supplemented with 10 mM 3-aminotriazole, and buffered to pH 7.0 with 0.1M sodium phosphate. Antibiotic discs were placed on the solidified agar, and a volume of agonist solution (1-5 μl) was applied to each disc. Plates were incubated at 30° C. for 3 days.
The four receptors were: the melatonin ML1B receptor, the serotonin 5HT1A receptor, the somatostatin SST2 receptor and the purinergic nucleotide receptor, P2Y2. […] Activation of the pheromone response pathway was monitored with two integrated reporter genes: […] allowing a growth readout in medium lacking histidine, and FUS1-lacZ allowing a β-galactosidase readout. […] Agonist-dependent activation of FUS1-HIS3 was determined by reverse halo assay in which agonists were applied to the filter discs in the arrangement shown in panel A, in quantities as follows: 3 nmol of somatostatin-14 (S-14); 40 nmol of melatonin (Mel); 3 nmol of α-factor; 100 nmol of UTP; 40 nmol of serotonin (5-HT). […]

T1 sequence (P41231 whole entry): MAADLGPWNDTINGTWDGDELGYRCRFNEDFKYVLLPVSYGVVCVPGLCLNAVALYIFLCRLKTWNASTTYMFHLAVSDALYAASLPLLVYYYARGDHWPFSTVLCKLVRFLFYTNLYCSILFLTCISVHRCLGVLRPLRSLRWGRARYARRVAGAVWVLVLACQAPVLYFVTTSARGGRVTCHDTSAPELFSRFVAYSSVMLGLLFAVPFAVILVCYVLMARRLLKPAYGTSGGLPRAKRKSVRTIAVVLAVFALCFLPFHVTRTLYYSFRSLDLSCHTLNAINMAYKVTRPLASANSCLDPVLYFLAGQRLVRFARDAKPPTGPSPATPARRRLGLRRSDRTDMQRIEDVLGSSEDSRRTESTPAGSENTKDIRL

B1: Gpa1p: endogenous yeast Gα subunit, product of the GPA1 gene (protein, UniProt P08539 2-472, looked up)
Guanine nucleotide-binding …: GCTVSTQTIGDESDPFLQNKRANDVIEQSLQLEKQRDKNEIKLLLLGAGESGKSTVLKQLKLLHQGGFSHQERLQYAQVIWADAIQSMKILIIQARKLGIQLDCDDPINNKDLFACKRILLKAKALDYINASVAGGSDFLNDYVLKYSERYETRRRVQSTGRAKAAFDEDGNISNVKSDTDRDAETVTQNEDADRNNSSRINLQDICKDLNQEGDDQMFVRKTSREIQGQNRRNLIHEDIAKAIKQLWNNDKGIKQCFARSNEFQLEGSAAYYFDNIEKFASPNYVCTDEDILKGRIKTTGITETEFNIGSSKFKVLDAGGQRSERKKWIHCFEGITAVLFVLAMSEYDQMLFEDERVNRMHESIMLFDTLLNSKWFKDTPFILFLNKIDLFEEKVKSMPIRKYFPDYQGRVGDAEAGLKYFEKIFLSLNKTNKPIYVKRTCATDTQTMKFVLSAVTDLIIQQNLKKIGII
[1]
  β-galactosidase activity (FUS1-LacZ), No Alpha Factor: 19+/−4 units
  β-galactosidase activity (FUS1-LacZ), Plus Alpha Factor: 273 +/− 49 units
[1]; listed as GPA1
  β-galactosidase activity (FUS1-LacZ), No Alpha Factor: 19 +/− 4 units
[2]
  FUS1-LacZ Activity, 1 μM α-factor: 27.2 ± 1.7 light units (×10^6 cps)
  FUS1-LacZ Activity, No α-factor: 0.73 ± 0.25 light units (×10^6 cps)
[3]
  agonist-dependent activation of FUS1-HIS3 (halo of cell growth): responded to the agonist UTP
